Data taken from the supplement of paper PMC9112550, “Optimization of the antimicrobial peptide Bac7 by deep mutational scanning” (BMC Biology, 2022).

system: Escherichia coli TOP10; test: shrunken log2 fold change of peptide-encoding DNA abundance (4.5 h post-induction vs induction); higher = less antimicrobial activity (less host growth inhibition); details: time post-induction: 4.5 h; library: site-saturation at positions 5, 18, 19, 20
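Further: peptides expressed intracellularly from a pBAD plasmid library in pooled LB shake-flask culture, induced with 0.3% L-arabinose, DNA abundance read by NGS, three biological replicates, DESeq2 with apeglm shrinkage.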

Sequence	shrunken log2 fold change
RRIRDRPPRLPRPRPRPLDFPRP	0.0675
RRIRGRPPRLPRPRPRPDNVPRP	-0.011
RRIRLRPPRLPRPRPRPRHTPRP	-0.236
RRIRKRPPRLPRPRPRPKCVPRP	0.52
RRIRKRPPRLPRPRPRPHFQPRP	0.0821
RRIRFRPPRLPRPRPRPLCSPRP	-0.566
RRIRRRPPRLPRPRPRPLIMPRP	-0.325
RRIRGRPPRLPRPRPRPNKDPRP	0.179
RRIRRRPPRLPRPRPRPDPSPRP	0.213
RRIRGRPPRLPRPRPRPLKLPRP	0.164
RRIRTRPPRLPRPRPRPYDWPRP	-0.696
RRIRHRPPRLPRPRPRPQFNPRP	-0.619
RRIRWRPPRLPRPRPRPLNFPRP	-0.323
RRIRDRPPRLPRPRPRPMAEPRP	0.902
RRIRNRPPRLPRPRPRPRYRPRP	-0.0876
RRIRVRPPRLPRPRPRPFKHPRP	-0.0897
RRIRGRPPRLPRPRPRPTGFPRP	1.23
RRIRCRPPRLPRPRPRPCWNPRP	-0.49
RRIRLRPPRLPRPRPRPTFLPRP	-0.153
RRIRFRPPRLPRPRPRPCHCPRP	-0.0994
RRIRERPPRLPRPRPRPCTSPRP	-0.0275
RRIRLRPPRLPRPRPRPFTMPRP	-0.764
RRIRFRPPRLPRPRPRPRSPPRP	1.06
RRIRGRPPRLPRPRPRPPFVPRP	0.803
RRIRGRPPRLPRPRPRPFIRPRP	-0.257

Sequence	shrunken log2 fold change
RRIRPRPPRLPRPRPRPGPIPRP	0.148
RRIRARPPRLPRPRPRPLPNPRP	0.286
RRIRVRPPRLPRPRPRPRQFPRP	0.238
RRIRWRPPRLPRPRPRPSIMPRP	-0.0893
RRIRIRPPRLPRPRPRPAGYPRP	-0.038
RRIRSRPPRLPRPRPRPQFYPRP	-0.769
RRIRIRPPRLPRPRPRPQWWPRP	0.0271
RRIRQRPPRLPRPRPRPEAVPRP	0.217
RRIRRRPPRLPRPRPRPTSLPRP	0.0087
RRIRNRPPRLPRPRPRPYEHPRP	-0.151
RRIRERPPRLPRPRPRPVEEPRP	-0.127
RRIRWRPPRLPRPRPRPYPCPRP	-0.105
RRIRARPPRLPRPRPRPSAEPRP	0.976
RRIRKRPPRLPRPRPRPVIKPRP	0.0845
RRIRERPPRLPRPRPRPFRVPRP	-0.0333
RRIRFRPPRLPRPRPRPMVCPRP	-0.0374
RRIRQRPPRLPRPRPRPMVRPRP	-0.17
RRIRWRPPRLPRPRPRPQDHPRP	0.178
RRIRHRPPRLPRPRPRPGSSPRP	0.0127
RRIRMRPPRLPRPRPRPRCPPRP	0.757
RRIRARPPRLPRPRPRPANNPRP	-0.0617
RRIRQRPPRLPRPRPRPFCDPRP	-0.259
RRIRQRPPRLPRPRPRPFVKPRP	-0.234
RRIRIRPPRLPRPRPRPAPDPRP	0.248
RRIRKRPPRLPRPRPRPHFLPRP	0.12

Sequence	shrunken log2 fold change
RRIRTRPPRLPRPRPRPHPAPRP	0.201
RRIRYRPPRLPRPRPRPLIFPRP	-1.08
RRIRTRPPRLPRPRPRPLTQPRP	-0.309
RRIRQRPPRLPRPRPRPWREPRP	-0.0373
RRIRKRPPRLPRPRPRPPEYPRP	0.0748
RRIRHRPPRLPRPRPRPHPLPRP	-0.0572
RRIRERPPRLPRPRPRPEFWPRP	0.159
RRIRARPPRLPRPRPRPLTQPRP	0.209
RRIRRRPPRLPRPRPRPYRAPRP	-0.47
RRIRQRPPRLPRPRPRPDWQPRP	0.0854
RRIRARPPRLPRPRPRPGCGPRP	0.887
RRIRTRPPRLPRPRPRPMPAPRP	0.102
RRIRDRPPRLPRPRPRPIQLPRP	0.0401
RRIRGRPPRLPRPRPRPGEFPRP	0.329
RRIRFRPPRLPRPRPRPFKRPRP	-0.813
RRIRMRPPRLPRPRPRPVFDPRP	0.184
RRIRNRPPRLPRPRPRPQGQPRP	0.225
RRIRVRPPRLPRPRPRPGILPRP	-0.466
RRIRPRPPRLPRPRPRPDAWPRP	0.513
RRIRSRPPRLPRPRPRPMMIPRP	-0.196
RRIRNRPPRLPRPRPRPNEYPRP	-0.312
RRIRPRPPRLPRPRPRPYKYPRP	-1.13
RRIRIRPPRLPRPRPRPQRQPRP	0.098
RRIRIRPPRLPRPRPRPYDPPRP	-0.0306
RRIRKRPPRLPRPRPRPTAWPRP	1.13
